experiment: yeast display, Sf9 membrane polyspecificity reagent, FACS + sequencing; frameworks hold sequencing errors
Outline: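 Nanobodies came from a synthetic yeast display library in Saccharomyces cerevisiae BJ5465, induced with galactose for 36–48 hours and stained for 1 hour at 4 °C with 10% biotinylated, detergent-solubilized Sf9 membrane reagent. Cells were enriched on streptavidin microbeads and then FACS-sorted, with low and high (top ~1%) gates set on anti-HA fluorescence for expression and streptavidin fluorescence for reagent binding. Each polyreactivity label reflects the gate a clone came from. Genes were amplified by colony PCR, sequenced by MiSeq 2 × 250 and filtered by CDR length.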

Row | Sequence | polyreactivity (PSR sort gate)
1 | HVQLVESGGGLVQAGGSLRLSCAASGIIFYYYTMGWYRPGPRKERELLAWSGGNTYYADSVKGRFTISRDNAKNTVYLQMNSLKPEDTAVYYCNALAIWSDDWDHWISYADDYWGQGTQVTVSS | low polyreactivity
2 | QVQLVESGGGLVQAGGSLRLSCAASGSTFNSNAMGWYRQAPGKERELVASITWTDVSTYYADSVKGRFTISRDNAKNTVYLQMNSLKPEDTAVYYCAAVTGLSSNDGYDYWGQGTQVTVSS | low polyreactivity
3 | QVQLVESGGGLVQAGGSLRLSCAASGSTSWRNTMGWYRQAPGKERELVAAIRNVGSTYYADSVKGLFTISRDNAKNTVYLQMNSLKPEDTAVYYCNARWRFLYDYWGQGTQVTVSS | high polyreactivity
4 | QVQLVESGGGLVQAGDSLRLICAASGFIFDNYAMGWYRQAPGKERELVAAISQSGTSTYYADSVKVRFTISRDIAKNTVYLQLISLKPEDTAVYYCNVVPTGVHIFDYWGQGTQVTVSS | low polyreactivity
5 | QVQLVESGGGLVQAGGSLRLSCAASGFTFVYYTMGWYRQAPGKERELVAAITSRGGNTYYADSVKGRFTISRDNAKNTVYLQMNSLKPEDTAVYYCAARRITTYYYWGQGTQVTVSS | high polyreactivity
6 | QVQLVESGGGLVQAGGSLRLSCAASGRIFKNYAMGWYRQAPGKERELVAGITRTGGSTYYADSVKGRFTISRDNAKNTVYLQMNSLKPEDTAVYYCAARPARKLVYWVQGTQVTVSS | high polyreactivity
7 | QVQLVESGGGLVQAGGSLRLSCAASGSIFPYYTMGWYRQAPGKERELVAAISGSGGSTYYADSVKGRFTISRDNAKNTVYLQMNSLKPEDTAVYYCAAYRRTWFDYWGQGTQVNVSS | high polyreactivity
8 | QVQLVESGGGLVQAGGSLRLSCAASGRTFWYYTMGWYRQAPGKERELVAAITRRGGSTYYADSVKGRFTLSRDKAKNTVYLQMNSLKPEDTAVYYCARGGSRLTQGWLVTPYDYDYWGQGTQVTVSS | high polyreactivity
9 | QVQLVESGVGLVQAGGSLRLLCAASGSIFTTYPMGWYRPAPGKERELVAAITSSSGSTYYADSVKGRFTISRDNAKNTVYLQMNSLKPEDTAVYYCNATYSAAVDYWGQGTQVTVSS | low polyreactivity
10 | QVQLVESGAGLVQAGGSLLLSSAPSASTFVSYAMGWYRQAPGKERELVAAISSGGGSTYYADSVKGRFTISRDNAKNTVYLQMNILKPEDTAVYYCAARGYAYRAQYGYWGQGTQVTVSS | high polyreactivity
11 | QVQLVESGGGIVQAGGSLRLSCAASGRIFLTNAMGWYRQAPGKERELVADISRGGSTYPDSVKGRFTISRDNAKNTVYLQMNSLKPEDTAVYYCAADEYSPGDSRTRYDYWGQGTQVTVSS | low polyreactivity
12 | QVQLVESGGGLVQAGGSLRLSCAASGRSFTYYAMGWYRQAPGKERELVATISGSGGSTYYADSVKGRFTISRDNAKNTVYLQMNSLKPEDTAVYYCAATGFIFRGRVRAIPRRYNYWGQGTQVTVSS | high polyreactivity
13 | QVQLVESGGGLVQAGGSLRLSWAASGSIFGWYGMGWYSPAPGKERELVAAITRGGSTYYADSVKGRFTISRDNAKNTVYLQMNSLKPEDTAGYYCAKRSGQQYGGYGYWGQGTQVTVSS | low polyreactivity
14 | QVQLVESGGGLVQAGGSLRLSCAASGSIFYDYVMGWYRQAPGKERELVAAISVSGGRTYYADSVKGRFTISRDNAKNTVYLQMNSLKPEDTAVDYCAAKYPAGGRNYDYWGQGTQVTVSS | high polyreactivity
15 | QVQLVESGGGLVQAGGSLRLSCASSGRIFGLYAMGWYRQAPGKERELVAAITLSGDGTDYADSVKGRFTISRDNAKNTVYLQMNSLKPEDTAVYYCAKVGQYWWNMDYWGQGTQVTVSS | low polyreactivity
16 | QVQLVESGGGLVQAGASLRLSCAASGFILYYYAMGWYRQAPGKERELVAAISARGGSTYYADSVKGRFTISRDNAKNTVYLQMNSLKPVDTAVYYCKKAGGYTGYTRRYEYWGQGTQVTVSS | high polyreactivity

Row | Sequence | polyreactivity (PSR sort gate)
17 | QVQLVESGGGLVQAGGSLRLSCAASGSTLPGNVMGWYRQAPGKERELVAAISKRGASTYYADSVKGRFTISRDNAKNNVYLQTPRLKPEDSAVYYCASRTRGSVVRFDYWGQGTQVTVSS | high polyreactivity
18 | QVQLVESGGGLVQAGGSLRLSCAASGRTFSQYAMGWYRQAPGKERELVAAITKNGGRTYYADSVKGRFTISRDNAKNTVYLQMNSLKPEDTAVYYCNARGGRYAGKLDYWGQGTQVTVSS | high polyreactivity
19 | QVQLVESGGGLVQAGGSLRLSCAASGRTFFQYAMGWYRQAPGKERELVATIRSGGSTYYADSVKGRFTISRDNAKNTVYLQMNSLKPEDTAVYYCATRYTRFRHFDYWGQGTQVTVSS | low polyreactivity
20 | QVQHVESGGGLVQAGGSLRLSCAASGSIFNYYDMGWYRQAPGKEREFVARITIGGSSTNYADSVKGRFTISRDNAKNTVYLQMNSLTPEDTAVYYCAAAQYGIFFSQMDYWGQGTQVTVSS | low polyreactivity
21 | QVQLVESGGGLVQAGGSLRLSCDASGSIFDRYVMGWYRQAPGKERELVAAITTSGDGTYYADSVKGRFTISRDNAKNSVYLQMNSLKREDTAVYYCAAVRRSWKYSTSDYWGQGTQVTVSS | low polyreactivity
22 | QVQLVESGGGLVQAGGSLRLSCAASGFTFYLYTMGWYRQAPGKERELVATITSDGGTNYADSVKGRFTISRDNAKNTVYLQMNSLTPEDTAVYYCARDYLSPYAVDYWGQGTQVTVSS | low polyreactivity
23 | QVQLVESGGGLVQAGGSLRLSCAASGRIFHFNAIGWYRQAPGKERELFARIDTRGDSTYYADSVKGRFTISRDNAKNTVYLQMNSLKPEDTAVYYCAARGSRDGPYSGYGYWGQGTQVTVSS | low polyreactivity
24 | QVQLVESGGGLVQAGGSLRLSCAASGFTINFYGMGWYRQAPGKERELVAAITASGGGSTYYADSVKGRFTISRDNAKNTVYLQMNSLKPEDTAVYYCNADYTGSFYTYDYWGQGTQVTVSS | low polyreactivity
25 | QVHLVESGGGLVQAGGSLRLSCAASGITFRRNAMGWYRQAPGKERELVARITVSGGTTYYADSVKGRFTISRDYAKNTVYLQMNSLKPEDTAVYYCAKVWHSSRVSPYDYWGQGTQVTVSS | low polyreactivity
26 | PVQLVESGGGLVQAGGSLRLICAASGSIFYQYTMGWYRQAPGKERELVATISWSDVSTYYADSVKGRFTISRENAQNPVYLQMNSLKPEDTSVYYCAALYSGWDRYYGYDYWGQGTQVTVSS | low polyreactivity
27 | QVQLVESGGGLVQAGGSLRLSCVASGGIFFHYAMRWYRHARGKERELVAAISISGGSTYSADSVKGRFTISRDNAKNTVYLQMNSLKPEDTAVYYCAARYWVRRKDYWGQGTQVTVSS | low polyreactivity
28 | QVQLVESGGGLVQAGGSLRLSCAASGITFYRKAMGRYRQAPGKERELVAAISRRGGITRYADSVKGRFTISRDNAKNTVYLQMNSLKPEDTAVYYCATVRYRWYSFQAERYYWGQGTQVTVSS | high polyreactivity
29 | QVQLVESGGGLVQAGCSLRLSCAASGSILWHYAKGWYRQAPGKERELVAFISSSGSTYYADSVKGRFTISRDNAKNTVYLQMNSLKPEDTAVDYCNAYRLYSGYVPYDYWGQCTQVTVSS | high polyreactivity
30 | QVQLVESGGGLVQAGGSLRLSCAASGFTFYAYAMGWYREAPGKERELVATIRRSTGSTYYADSVKGRFTISRDNAKNTVYLQMNSLKQQDTAVYYFATRVWFPITSYDYWGQGTQVTVSS | low polyreactivity
31 | QVQLVESGGCLVQAGGSLRLSCAASGFTFGPYDMGWYRQAPGKERELVAVIIGGDSTNYADSVKGRFTISRDNAKNTVYLQLNSLKPEVTAVYYCAADYIDRVGWMDYWGQGTQVTVSS | low polyreactivity
32 | QVQLVESGGGLVQAGGSLRLSCAASGSTFDTYAMGWYRQAPGKEMELVAVISSGGGTYYADSVKGRFTISRDNAKNTVYLQMNSLKPEDTAVYYCAADRPTPYGYESTYDYWGQGTQVTVSS | low polyreactivity
